The results in this text go back to article PMC11374805.

The Kd is the equilibrium constant for the complex coming apart.

For the experiment, the target named is peptidase domain (PD) of human ACE2 (human) (UniProt Q9BYF1). The experiment is described as follows: BLI. A general note: BLI is a label-free optical method that tracks binding on a fibre tip over time.

The substance “RBD (319-541 a.a) of S protein from SARS-CoV-2 Omicron variant BA.2 (domain or fragment)” returned a Kd of 16 nM.
